T1: gelatinase A (MMP-2) (Homo sapiens, UniProt P08253)
T1 sequence (P08253 110-660): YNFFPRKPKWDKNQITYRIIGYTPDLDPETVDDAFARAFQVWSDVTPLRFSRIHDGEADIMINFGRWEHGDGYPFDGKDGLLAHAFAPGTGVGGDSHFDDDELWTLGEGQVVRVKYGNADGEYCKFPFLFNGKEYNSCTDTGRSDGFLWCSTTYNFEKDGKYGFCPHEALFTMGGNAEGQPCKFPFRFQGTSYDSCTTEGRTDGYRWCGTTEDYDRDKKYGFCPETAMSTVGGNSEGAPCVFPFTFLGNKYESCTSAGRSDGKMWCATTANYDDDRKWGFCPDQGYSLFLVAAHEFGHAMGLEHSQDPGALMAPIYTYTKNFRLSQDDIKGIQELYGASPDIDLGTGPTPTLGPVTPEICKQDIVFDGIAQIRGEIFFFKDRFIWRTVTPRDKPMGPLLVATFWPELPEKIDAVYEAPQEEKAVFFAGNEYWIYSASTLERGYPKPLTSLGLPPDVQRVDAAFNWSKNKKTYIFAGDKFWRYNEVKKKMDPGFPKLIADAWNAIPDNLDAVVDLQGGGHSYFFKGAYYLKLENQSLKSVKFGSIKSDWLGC

T2: human ADAMTS-4 lacking the C-terminal spacer domain (Homo sapiens, UniProt O75173)
T2 construct: Recombinant human ADAMTS-4 lacking the C-terminal spacer domain; made in house
T2 sequence (O75173 213-685 limits assumed): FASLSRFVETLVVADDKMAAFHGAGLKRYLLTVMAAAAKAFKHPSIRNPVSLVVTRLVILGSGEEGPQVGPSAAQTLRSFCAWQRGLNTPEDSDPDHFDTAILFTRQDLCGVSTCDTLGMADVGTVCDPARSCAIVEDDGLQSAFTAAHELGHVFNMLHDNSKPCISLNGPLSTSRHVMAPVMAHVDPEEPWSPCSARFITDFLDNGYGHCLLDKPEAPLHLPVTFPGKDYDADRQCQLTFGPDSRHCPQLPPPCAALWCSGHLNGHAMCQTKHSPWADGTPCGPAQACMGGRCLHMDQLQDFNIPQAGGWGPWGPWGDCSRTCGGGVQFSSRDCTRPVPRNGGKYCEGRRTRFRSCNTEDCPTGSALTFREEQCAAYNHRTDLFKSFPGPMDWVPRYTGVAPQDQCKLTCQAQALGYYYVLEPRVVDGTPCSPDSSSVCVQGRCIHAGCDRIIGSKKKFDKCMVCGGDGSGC


Assays:
[1] = tested on: porcine articular cartilage; assay: Retinoic acid-stimulated porcine articular cartilage, GAG release; format: cell-based
Procedure: Porcine articular cartilage from the metacarpophalangeal joints of 3-9 month old pigs is dissected into small shavings approximately 3 mm long and 2-3 mm wide. After dissection, the cartilage is allowed to rest for 24 h at 37° C. under 5% CO2 in DMEM containing penicillin-streptomycin, amphotericin B, and 5% fetal calf serum. The medium is then replaced with fresh media and the cartilage is rested for a further 24-48 h. Each cartilage piece is then placed in one well of a round bottom 96-well plate with 200 μl of serum-free DMEM with or without 10-100 ng/ml IL-1α or 1 μM retinoic acid and various concentrations of each TIMP-3 mutant. After 3 days, all of the conditioned media are harvested and stored at −20° C. until use.
(§1) GAG released into the conditioned media is measured in duplicate using a modification of the dimethylmethylene blue (DMMB) assay as described in Farndale et al.. Shark chondroitin sulfate (0-2.62 μg) is used as standard. The % of total GAG released into the medium is calculated as follows: % of total GAG released=(total GAG in the medium)/(total GAG in the medium+total GAG remaining in the cartilage).

[2] = tested on: porcine articular cartilage; assay: IL-1α-stimulated porcine articular cartilage degradation, GAG release (DMMB); format: cell-based; settings: IL-1α 10 ng/ml, 3 days
Procedure: FIG. 7. Inhibition of IL-1a stimulated porcine articular cartilage degradation by N-terminal mutants of N-TIMP-3. Porcine articular cartilage pieces were cultured for three days. Cartilage was stimulated with IL-1α (10 ng/ml) with TIMPs at the concentrations indicated. Glycosaminoglycan (GAG) release in the media was measured by dimethyl methylene blue (DMMB).
Porcine articular cartilage from the metacarpophalangeal joints of 3-9 month old pigs is dissected into small shavings approximately 3 mm long and 2-3 mm wide. After dissection, the cartilage is allowed to rest for 24 h at 37° C. under 5% CO2 in DMEM containing penicillin-streptomycin, amphotericin B, and 5% fetal calf serum. The medium is then replaced with fresh media and the cartilage is rested for a further 24-48 h. […]
as §1, with “Shark chondroitin sulfate (0-2.62 μg) is used as standard.” left out
Porcine articular cartilage pieces were cultured for 3 days. […] Glycosaminoglycan (GAG) release in the media was measured by dimethyl methylene blue (DMMB).

[3] = molecular target: T1, gelatinase A (MMP-2); settings: Table I; data taken from ref. 8; read-out: Ki(app) MMP-2; cited from earlier work
[4] = molecular target: T2, human ADAMTS-4 lacking the C-terminal spacer domain; assay: ADAMTS-4 inhibition, bovine aggrecan digestion, anti-GELE Western blot; format: biochemical; settings: 0.5 nM ADAMTS-4, 1 mg/ml bovine aggrecan, 37° C., 2 h; read-out: Ki(app) ADAMTS-4
Procedure: ADAMTS-4 lacking the spacer domain (0.5 nM) was incubated with N-TIMP-3 mutants at the concentration indicated for 30 min and then incubated with 1 mg/ml of bovine aggrecan at pH 7.5 for 2 h at 37° C. The reaction was terminated with 10 mM EDTA and samples were deglycosylated and subjected to Western blotting analysis using antibodies that recognise the fragments with the C-terminal GELE1480 as described by Little et al. The bands were quantified by densitometric analyses.
Recombinant human ADAMTS-4 lacking the C-terminal spacer domain was prepared and expressed as described (Kashimagi, M. et al. J. Biol. Chem. 279, 10109-10119, 2004), and bovine cartilage aggrecan was purified according to Hascall and Sajdesa (J. Biol. Chem. 244, 2384-2396, 1969). Antibody that recognized the fragment with the C-terminal GELE was described by Kashiwagi et al (2004). To examine the inhibition of ADAMTS-4 by (-1A) N-TIMP-3 and N-TIMP-3(T2G), 0.5 nM ADAMTS-4 was incubated with a various concentration of the inhibitor for 30 mins at room temperature and then with 1 mg/ml of bovine aggrecan at 37° C. for 2 h. […] The products were then precipated with 10 vol. of acetone and subjected to Western blotting analysis with the anti-GELE antibody as primary antibody and developed as described by Little et al. The staining intensity of the band was quantified by densitometric analysis.

Row | Ki [4] | Molecule | Inhibition of retinoic acid-stimulated GAG release [1] | Inhibition of IL-1α stimulated cartilage degradation (GAG release) [2] | Ki [3]
1 |  | N-TIMP-3: N-terminal inhibitory domain of TIMP-3 (residues 1 to 121), C-terminally His-tagged, wild-type (protein) CTCSPSHPQDAFCNSDIVIRAKVVGKKLVKEGPFGTLVYTIKQMKMYRGFTKMPHVQYIHTEASESLCGLKLEVNKYQYLLTGRVYDGKMYTGLCNFVERWDQLTLSQRKGLNYRYHLGCN | inhibited by N-TIMP-3, but to a lesser extent compared with the IL-1α-stimulated cartilage | dose dependently inhibited degradation | 4.3 ± 0.5 nM
2 | 18 nM | -1A: N-TIMP-3 mutant with the addition of an N-terminal alanine extension (-1A) (protein) ACTCSPSHPQDAFCNSDIVIRAKVVGKKLVKEGPFGTLVYTIKQMKMYRGFTKMPHVQYIHTEASESLCGLKLEVNKYQYLLTGRVYDGKMYTGLCNFVERWDQLTLSQRKGLNYRYHLGCN |  |  | 
